Reference: US20170015742A1 (published 2017)

Key:
[1] = target: recombinant human VEGF165 (human, UniProt P15692 207-395); test: cell-based or functional assay
[2] = target: recombinant human PDGF-BB (human, UniProt P01127 82-190); test: cell-based or functional assay
Sequence of recombinant human PDGF-BB (P01127 82-190 limits assumed): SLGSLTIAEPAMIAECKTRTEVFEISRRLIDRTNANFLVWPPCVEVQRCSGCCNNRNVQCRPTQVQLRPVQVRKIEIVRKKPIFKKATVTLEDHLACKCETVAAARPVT

Sequence of recombinant human VEGF165 (P15692 other isoform, or with tags, fused parts or gaps limits assumed): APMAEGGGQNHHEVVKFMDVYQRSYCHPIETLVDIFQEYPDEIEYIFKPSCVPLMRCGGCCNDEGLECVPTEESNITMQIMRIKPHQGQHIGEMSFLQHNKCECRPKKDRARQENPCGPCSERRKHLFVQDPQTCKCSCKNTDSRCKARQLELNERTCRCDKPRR

| Binder | Potency IC50 (nM) HMVEC-d hVEGF165 [1] | Potency IC50 (nM) NIH-3T3 hPDGF-BB [2] |
| --- | --- | --- |
| 4G8.5_GS_3E2.1 (bispecific antibody, human IgG1, kappa, L234A L235A) heavy: EIQLVQSGSELKKPGASVKVSCKASGYTFTNYGMYWVRQAPGQGLEYMGWINTETGKPTYADDFKGRFVFSLDTSVSTAYLQISSLKAEDTAVYFCARTNYYYRSYIFYFDYWGQGTMVTVSSGGGGSGGGGSEVQLVQSGAEVKKPGSSVKVSCKASGYTFTESYMYWVKQAPGQGLELIGRIDPEDGSTDYVEKFKNKATLTADKSTSTAYMELSSLRSEDTAVYFCARFGARSYFYPMDAWGQGTTVTVSSASTKGPSVFPLAPSSKSTSGGTAALGCLVKDYFPEPVTVSWNSGALTSGVHTFPAVLQSSGLYSLSSVVTVPSSSLGTQTYICNVNHKPSNTKVDKKVEPKSCDKTHTCPPCPAPEAAGGPSVFLFPPKPKDTLMISRTPEVTCVVVDVSHEDPEVKFNWYVDGVEVHNAKTKPREEQYNSTYRVVSVLTVLHQDWLNGKEYKCKVSNKALPAPIEKTISKAKGQPREPQVYTLPPSREEMTKNQVSLTCLVKGFYPSDIAVEWESNGQPENNYKTTPPVLDSDGSFFLYSKLTVDKSRWQQGNVFSCSVMHEALHNAYTQKSLSLSPGK light: ATQLTQSPSLSASVGDRVTITCRASESVSTHMHWYQQKPGKQPKLLIYGASNLESGVPSRFSGSGSGTDFTLTISSLQPEDFATYFCQQSWNDPFTFGQGTKLEIKGGSGGGGSGGETVLTQSPATLSLSPGERATLSCRASESVSTLMHWYQQKPGQQPRLLIYGASNLESGVPARFSGSGSGTDFTLTISSLEPEDFAVYFCQQSWNDPWTFGGGTKVEIKRTVAAPSVFIFPPSDEQLKSGTASVVCLLNNFYPREAKVQWKVDNALQSGNSQESVTEQDSKDSTYSLSSTLTLSKADYEKHKVYACEVTHQGLSSPVTKSFNRGEC | 0.072 nM | 1.4 nM |
| 4G8.12-GS10-9E8.4 (bispecific antibody, human IgG1, kappa, L234A L235A) heavy: not shown light: DTVLTQSPATLSLSPGERATLSCRASESVSTHMHWYQQKPGQAPRLLIYGASNLESGVPARFSGSGSGTDFTLTISSLEPEDFAVYFCQQSWNDPFTFGQGTKLEIKRGGSGGGGSGEFVLTQSPGTLSLSPGERATLSCERSSGDIGDSYVSWYQQKPGQAPRLVIYADDQRPSGIPDRFSGSGSGTDFTLTISRLEPEDFAVYYCQSYDINIDIVFGGGTKVEIKRTVAAPSVFIFPPSDEQLKSGTASVVCLLNNFYPREAKVQWKVDNALQSGNSQESVTEQDSKDSTYSLSSTLTLSKADYEKHKVYACEVTHQGLSSPVTKSFNRGEC | 0.079 nM | 0.227 nM |
| 1B10.1_GS_CL-33675 (bispecific antibody, human IgG1, kappa, L234A L235A) heavy: EVQLVESGGGLVQPGGSLRLSCAASGFSFSKYDMAWFRQAPGKGLEWVASITTSGVGTYYRDSVKGRFTVSRDNAKSTLYLQMNSLRAEDTAVYYCARGYGAMDAWGQGTTVTVSSGGGGSGGGGSEVTLRESGPALVKPTQTLTLTCTFSGFSLSTYGMGVGWIRQPPGKALEWLANIWWDDDKYYNPSLKNRLTISKDTSKNQVVLTMTNMDPVDTATYYCARIESSGPKYSFDYWGQGTMVTVSSASTKGPSVFPLAPSSKSTSGGTAALGCLVKDYFPEPVTVSWNSGALTSGVHTFPAVLQSSGLYSLSSVVTVPSSSLGTQTYICNVNHKPSNTKVDKKVEPKSCDKTHTCPPCPAPEAAGGPSVFLFPPKPKDTLMISRTPEVTCVVVDVSHEDPEVKFNWYVDGVEVHNAKTKPREEQYNSTYRVVSVLTVLHQDWLNGKEYKCKVSNKALPAPIEKTISKAKGQPREPQVYTLPPSREEMTKNQVSLTCLVKGFYPSDIAVEWESNGQPENNYKTTPPVLDSDGSFFLYSKLTVDKSRWQQGNVFSCSVMHEALHNAYTQKSLSLSPGK light: DIQMTQSPSSLSASVGDRVTITCKASQDIDDYLSWYQQKPGKSPKLVIYAATRLADGVPSRFSGSGSGTDYTLTISSLQPEDFATYYCLQSSSTPWTFGGGTKVEIKGGSGGGGSGGEIVLTQSPGTLSLSPGERATLSCRASSGSIWYSFVSWYQQKPGQAPRLLIYADDQRASGIPDRFSGSGSGTDFTLTISRLEPEDFAVYYCQSYGINIDVVFGGGTKVEIKRTVAAPSVFIFPPSDEQLKSGTASVVCLLNNFYPREAKVQWKVDNALQSGNSQESVTEQDSKDSTYSLSSTLTLSKADYEKHKVYACEVTHQGLSSPVTKSFNRGEC | 0.05 nM | 0.037 nM |
| 4G8.5_GS_CL-33675 (bispecific antibody, human IgG1, kappa, L234A L235A) heavy: EIQLVQSGSELKKPGASVKVSCKASGYTFTNYGMYWVRQAPGQGLEYMGWINTETGKPTYADDFKGRFVFSLDTSVSTAYLQISSLKAEDTAVYFCARTNYYYRSYIFYFDYWGQGTMVTVSSGGGGSGGGGSEVTLRESGPALVKPTQTLTLTCTFSGFSLSTYGMGVGWIRQPPGKALEWLANIWWDDDKYYNPSLKNRLTISKDTSKNQVVLTMTNMDPVDTATYYCARIESSGPKYSFDYWGQGTMVTVSSASTKGPSVFPLAPSSKSTSGGTAALGCLVKDYFPEPVTVSWNSGALTSGVHTFPAVLQSSGLYSLSSVVTVPSSSLGTQTYICNVNHKPSNTKVDKKVEPKSCDKTHTCPPCPAPEAAGGPSVFLFPPKPKDTLMISRTPEVTCVVVDVSHEDPEVKFNWYVDGVEVHNAKTKPREEQYNSTYRVVSVLTVLHQDWLNGKEYKCKVSNKALPAPIEKTISKAKGQPREPQVYTLPPSREEMTKNQVSLTCLVKGFYPSDIAVEWESNGQPENNYKTTPPVLDSDGSFFLYSKLTVDKSRWQQGNVFSCSVMHEALHNAYTQKSLSLSPGK light: ATQLTQSPSLSASVGDRVTITCRASESVSTHMHWYQQKPGKQPKLLIYGASNLESGVPSRFSGSGSGTDFTLTISSLQPEDFATYFCQQSWNDPFTFGQGTKLEIKGGSGGGGSGGEIVLTQSPGTLSLSPGERATLSCRASSGSIWYSFVSWYQQKPGQAPRLLIYADDQRASGIPDRFSGSGSGTDFTLTISRLEPEDFAVYYCQSYGINIDVVFGGGTKVEIKRTVAAPSVFIFPPSDEQLKSGTASVVCLLNNFYPREAKVQWKVDNALQSGNSQESVTEQDSKDSTYSLSSTLTLSKADYEKHKVYACEVTHQGLSSPVTKSFNRGEC | 0.076 nM | 0.05 nM |

The remaining lines, values ahead:

| Potency IC50 (nM) HMVEC-d hVEGF165 [1] | Potency IC50 (nM) NIH-3T3 hPDGF-BB [2] | Binder |
| --- | --- | --- |
| 0.907 nM | 0.255 nM | 4G8.13-GS10-9E8.4 (bispecific antibody, human IgG1, kappa, L234A L235A) heavy: not shown light: ETVLTQSPATLSVSPGERATLSCRASESVSTHMHWYQQKPGQAPRLLIYGASNLESGVPARFSGSGSGTDFTLTISSLQSEDFAVYFCQQSWNDPFTFGQGTRLEIKRGGSGGGGSGEFVLTQSPGTLSLSPGERATLSCERSSGDIGDSYVSWYQQKPGQAPRLVIYADDQRPSGIPDRFSGSGSGTDFTLTISRLEPEDFAVYYCQSYDINIDIVFGGGTKVEIKRTVAAPSVFIFPPSDEQLKSGTASVVCLLNNFYPREAKVQWKVDNALQSGNSQESVTEQDSKDSTYSLSSTLTLSKADYEKHKVYACEVTHQGLSSPVTKSFNRGEC |
| 0.113 nM | 0.459 nM | 4G8.14-GS10-9E8.4 (bispecific antibody, human IgG1, kappa, L234A L235A) heavy: not shown light: DTVLTQSPSTLSASPGERATISCRASESVSTHMHWYQQKPGQAPKLLIYGASNLESGVPSRFSGSRSGTDFTLTISSLQPEDFAVYFCQQSWNDPFTFGQGTKVEIKRGGSGGGGSGEFVLTQSPGTLSLSPGERATLSCERSSGDIGDSYVSWYQQKPGQAPRLVIYADDQRPSGIPDRFSGSGSGTDFTLTISRLEPEDFAVYYCQSYDINIDIVFGGGTKVEIKRTVAAPSVFIFPPSDEQLKSGTASVVCLLNNFYPREAKVQWKVDNALQSGNSQESVTEQDSKDSTYSLSSTLTLSKADYEKHKVYACEVTHQGLSSPVTKSFNRGEC |
| 0.054 nM | 5.72 nM | 9E10.1_GS_3E2.1 (bispecific antibody, human IgG1, kappa, L234A L235A) heavy: EIQLVQSGSELKKPGASVKVSCKASGYTFTNYGMYWVKQAPGQGLEYMGWIDTETGRPTYADDFKGRFVFSLDTSVSTAYLQISSLKAEDTAVYFCARWSGDTTGIRGPWFAYWGQGTLVTVSSGGGGSGGGGSEVQLVQSGAEVKKPGSSVKVSCKASGYTFTESYMYWVKQAPGQGLELIGRIDPEDGSTDYVEKFKNKATLTADKSTSTAYMELSSLRSEDTAVYFCARFGARSYFYPMDAWGQGTTVTVSSASTKGPSVFPLAPSSKSTSGGTAALGCLVKDYFPEPVTVSWNSGALTSGVHTFPAVLQSSGLYSLSSVVTVPSSSLGTQTYICNVNHKPSNTKVDKKVEPKSCDKTHTCPPCPAPEAAGGPSVFLFPPKPKDTLMISRTPEVTCVVVDVSHEDPEVKFNWYVDGVEVHNAKTKPREEQYNSTYRVVSVLTVLHQDWLNGKEYKCKVSNKALPAPIEKTISKAKGQPREPQVYTLPPSREEMTKNQVSLTCLVKGFYPSDIAVEWESNGQPENNYKTTPPVLDSDGSFFLYSKLTVDKSRWQQGNVFSCSVMHEALHNAYTQKSLSLSPGK light: DIRMTQSPSSLSASVGDRVTIECLASEDIYSDLAWYQQKPGKSPKLLIYNANGLQNGVPSRFSGSGSGTDYSLTISSLQPEDVATYFCQQYNYFPGTFGQGTKLEIKGGSGGGGSGGETVLTQSPATLSLSPGERATLSCRASESVSTLMHWYQQKPGQQPRLLIYGASNLESGVPARFSGSGSGTDFTLTISSLEPEDFAVYFCQQSWNDPWTFGGGTKVEIKRTVAAPSVFIFPPSDEQLKSGTASVVCLLNNFYPREAKVQWKVDNALQSGNSQESVTEQDSKDSTYSLSSTLTLSKADYEKHKVYACEVTHQGLSSPVTKSFNRGEC |
| 0.06 nM | 1.32 nM | 9E10.6_GS_3E2.1 (bispecific antibody, human IgG1, kappa, L234A L235A) heavy: EVQLVQSGAEVKKPGSSVKVSCKASGYTFTNYGMYWVRQAPGQGLEWMGWIDTETGRPTYADDFKGRFTFTADKSTSTAYMELSSLRSEDTAVYYCARWSGDTTGIRGPWFAYWGQGTLVTVSSGGGGSGGGGSEVQLVQSGAEVKKPGSSVKVSCKASGYTFTESYMYWVKQAPGQGLELIGRIDPEDGSTDYVEKFKNKATLTADKSTSTAYMELSSLRSEDTAVYFCARFGARSYFYPMDAWGQGTTVTVSSASTKGPSVFPLAPSSKSTSGGTAALGCLVKDYFPEPVTVSWNSGALTSGVHTFPAVLQSSGLYSLSSVVTVPSSSLGTQTYICNVNHKPSNTKVDKKVEPKSCDKTHTCPPCPAPEAAGGPSVFLFPPKPKDTLMISRTPEVTCVVVDVSHEDPEVKFNWYVDGVEVHNAKTKPREEQYNSTYRVVSVLTVLHQDWLNGKEYKCKVSNKALPAPIEKTISKAKGQPREPQVYTLPPSREEMTKNQVSLTCLVKGFYPSDIAVEWESNGQPENNYKTTPPVLDSDGSFFLYSKLTVDKSRWQQGNVFSCSVMHEALHNAYTQKSLSLSPGK light: DIRMTQSPSSLSASVGDRVTITCLASEDIYSDLAWYQQKPGKSPKLLIYNANGLQNGVPSRFSGSGSGTDYTLTISSLQPEDVATYFCQQYNYFPGTFGQGTKLEIKGGSGGGGSGGETVLTQSPATLSLSPGERATLSCRASESVSTLMHWYQQKPGQQPRLLIYGASNLESGVPARFSGSGSGTDFTLTISSLEPEDFAVYFCQQSWNDPWTFGGGTKVEIKRTVAAPSVFIFPPSDEQLKSGTASVVCLLNNFYPREAKVQWKVDNALQSGNSQESVTEQDSKDSTYSLSSTLTLSKADYEKHKVYACEVTHQGLSSPVTKSFNRGEC |
